± gives the uncertainty stated by the source.
Assay: self-splicing fitness, log relative to wild type (ln ratio); higher = more splicing; Tetrahymena group I intron in knt gene, E. coli kanamycin selection, DiMSum; sequences stand for … in CUCUCU…GGAGGGAAAAGUUAUCAGGCAUGCACCUGGUAGCUAGUCUUUAAACCAAUAGAUUGCAUCGGUUUAAAAGGCAAGACCGUCAAAUUGCGGGAAAGGGGUCAACAGCCGUUCAGUACCAAGUCUCAGGGGAAACUUUGAGAUGGCCUUGCAAAGGGUAUGGUAAUAAGCUGACGGACAUGGUCCUAACCACGCAGCCAAGUCCUAAGUCAACAGAUCUUCUGUUGAUAUGGAUGCAGUUCACAGACUAAAUGUCGGUCGGGGAAGAUGUAUUCUUCUCAUAAGAUAUAGUCGGACCUCUCCUUAAUGGGAGCUAGCGGAUGAAGUGAUGCAACACUGGAGCCGCUGGGAACUAAUUUGUAUGCGAAAGUAUAUUGAUUAGUUUUGGAGUACUCGUGGUCG
In short: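 The eight P1ex-region nucleotides of an intron in the knt kanamycin-resistance gene on pET-22b(+) were all randomised and the library put into E. coli BL21(DE3). Six replicate transformations were grown overnight at 37°C or 30°C on LB agar with or without 25 μg/mL kanamycin, together with 100 μg/mL carbenicillin, 50 μM IPTG and 0.2% rhamnose. Colonies were pooled and amplicon-sequenced on an Illumina HiSeq 2500. Fitness from DiMSum is the error-weighted combination of wild-type-normalised replicate fold changes, kanamycin over none.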

| Sequence | self-splicing fitness (ln) (30 °C) | self-splicing fitness (ln) (37 °C) |
| --- | --- | --- |
| GUCCAGCAAUAUUACGGAGA | -0.714 ± 0.096 | 0.585 ± 0.11 |
| CGUGAGCAAUAUUACGCUCU | -1.76 ± 0.36 |  |
| UGAUAGCAAUAUUACGGUCC | -0.857 ± 0.1 | 0.318 ± 0.14 |
| UAGCAGCAAUAUUACGGGCC | -1.45 ± 0.21 | -2.55 ± 0.36 |
| CGGGAGCAAUAUUACGGUUU |  | -1.19 ± 0.32 |
| ACCUAGCAAUAUUACGAAAC | -2.68 ± 0.15 | -2.31 ± 0.19 |
| ACUUAGCAAUAUUACGGCGG | -1.06 ± 0.087 | -0.78 ± 0.096 |
| CAAUAGCAAUAUUACGCACC | -3.66 ± 0.3 |  |
| GUUGAGCAAUAUUACGAGUG | -2.98 ± 0.19 | -3.28 ± 0.28 |
| GUCCAGCAAUAUUACGUGGA | -3.34 ± 0.21 | -1.91 ± 0.19 |
| AAAGAGCAAUAUUACGGAUU | -0.754 ± 0.18 | -1.45 ± 0.17 |
| CCGCAGCAAUAUUACGCUUA | -3.07 ± 0.17 | -2.9 ± 0.25 |
| UAGCAGCAAUAUUACGGGUA | -0.507 ± 0.052 | 0.13 ± 0.057 |
| UCACAGCAAUAUUACGGUCA | -0.0483 ± 0.085 | 0.318 ± 0.099 |
| GAAGAGCAAUAUUACGAUGA | -3.03 ± 0.31 | -1.57 ± 0.17 |
| AAUUAGCAAUAUUACGGCAU | 0.0829 ± 0.11 | 0.351 ± 0.11 |
| AGGGAGCAAUAUUACGCAGC | -2.92 ± 0.47 |  |
| GCGGAGCAAUAUUACGCUUA |  | 1.64 ± 0.37 |
| CGGUAGCAAUAUUACGAUUC | -2.84 ± 0.17 | -1.69 ± 0.13 |
| CACGAGCAAUAUUACGUUGG | -3.11 ± 0.16 | -1.79 ± 0.14 |
| UAAAAGCAAUAUUACGGACG | 0.221 ± 0.11 | 0.00931 ± 0.13 |
| CGUGAGCAAUAUUACGAUAU | -2.77 ± 0.14 | -2.71 ± 0.23 |
| UACCAGCAAUAUUACGGGGU | -4.41 ± 0.16 | -2.68 ± 0.15 |
| GUAUAGCAAUAUUACGUCAG | -3.96 ± 0.35 | -1.08 ± 0.18 |
| AAAUAGCAAUAUUACGUCUA | -0.412 ± 0.077 | 0.205 ± 0.084 |
| GCUUAGCAAUAUUACGUACG | -1.07 ± 0.065 | 0.0666 ± 0.089 |

| Sequence | self-splicing fitness (ln) (30 °C) | self-splicing fitness (ln) (37 °C) |
| --- | --- | --- |
| GUCAAGCAAUAUUACGCCGG |  | -0.94 ± 0.36 |
| GUGAAGCAAUAUUACGGUGU | -1.8 ± 0.063 | -0.777 ± 0.082 |
| CGAGAGCAAUAUUACGGUGG | -1.72 ± 0.34 | -2.24 ± 0.34 |
| UCCCAGCAAUAUUACGUACC |  | 0.327 ± 0.33 |
| CUUAAGCAAUAUUACGUUGC |  | -2.03 ± 0.35 |
| GAGCAGCAAUAUUACGGCAC | -0.575 ± 0.1 | -0.126 ± 0.17 |
| GCUAAGCAAUAUUACGGGCC |  | -2.28 ± 0.39 |
| CAGGAGCAAUAUUACGUUCC | -3.33 ± 0.23 | -2.04 ± 0.27 |
| GUCCAGCAAUAUUACGCGAG | -0.816 ± 0.088 | -0.322 ± 0.1 |
| UUGGAGCAAUAUUACGCCAA | -1.49 ± 0.44 |  |
| GGCAAGCAAUAUUACGCCUU | -2.83 ± 0.22 | -0.231 ± 0.16 |
| CUCGAGCAAUAUUACGACGG | -1.94 ± 0.15 | -0.385 ± 0.18 |
| CACCAGCAAUAUUACGGCUA | -1.1 ± 0.083 | -0.202 ± 0.074 |
| CCGGAGCAAUAUUACGAUCA | -3.1 ± 0.42 | -2.63 ± 0.44 |
| UGUAAGCAAUAUUACGUAAA | -2.36 ± 0.19 | -1.02 ± 0.16 |
| CUCAAGCAAUAUUACGGGUG | -1.43 ± 0.059 | -1.2 ± 0.073 |
| CCUCAGCAAUAUUACGAAUA | -1.54 ± 0.2 | -2.78 ± 0.4 |
| CGGUAGCAAUAUUACGUGAA | -2.67 ± 0.18 | -1.52 ± 0.19 |
| AACCAGCAAUAUUACGACCU | -0.404 ± 0.093 | -0.0868 ± 0.1 |
| GACGAGCAAUAUUACGCGAG | -2.3 ± 0.17 | -2.85 ± 0.26 |
| CUCAAGCAAUAUUACGCUUU | -4.09 ± 0.37 | -3.52 ± 0.31 |
| CUGGAGCAAUAUUACGCUUG | -3.94 ± 0.34 | -2.35 ± 0.45 |
| AUAAAGCAAUAUUACGCAAU | -0.8 ± 0.074 | -0.703 ± 0.11 |
| CUUCAGCAAUAUUACGUUGG | -3.67 ± 0.23 | -4.08 ± 0.46 |
| CAAAAGCAAUAUUACGCGAG | -2.58 ± 0.098 | -1.06 ± 0.078 |
